Data on three molecules can be found in publication PMC3305813 (Neuron, 2012).

The target in one test is CYSL-1 (Caenorhabditis elegans, UniProt Q93244, R259K). Kind of test: O-acetylserine sulfhydrylase assay. It counts as biochemical. The note with it: co-substrate sulfide.
The target in another test is T1, recombinant CYSL-1 (C. elegans, UniProt Q93244 1-341).
T1 sequence (looked up): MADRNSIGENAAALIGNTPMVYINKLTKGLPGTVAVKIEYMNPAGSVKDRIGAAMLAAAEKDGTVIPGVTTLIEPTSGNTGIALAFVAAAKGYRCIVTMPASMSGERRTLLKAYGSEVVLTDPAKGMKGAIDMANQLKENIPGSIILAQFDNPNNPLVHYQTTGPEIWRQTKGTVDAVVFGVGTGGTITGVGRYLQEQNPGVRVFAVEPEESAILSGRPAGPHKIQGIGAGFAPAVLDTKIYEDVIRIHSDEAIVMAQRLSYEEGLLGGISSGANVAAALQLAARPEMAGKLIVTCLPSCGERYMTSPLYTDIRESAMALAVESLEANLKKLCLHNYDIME
Kind of test: other fluorescence titration.

Sequence of CYSL-1 (Q93244 whole entry R259K): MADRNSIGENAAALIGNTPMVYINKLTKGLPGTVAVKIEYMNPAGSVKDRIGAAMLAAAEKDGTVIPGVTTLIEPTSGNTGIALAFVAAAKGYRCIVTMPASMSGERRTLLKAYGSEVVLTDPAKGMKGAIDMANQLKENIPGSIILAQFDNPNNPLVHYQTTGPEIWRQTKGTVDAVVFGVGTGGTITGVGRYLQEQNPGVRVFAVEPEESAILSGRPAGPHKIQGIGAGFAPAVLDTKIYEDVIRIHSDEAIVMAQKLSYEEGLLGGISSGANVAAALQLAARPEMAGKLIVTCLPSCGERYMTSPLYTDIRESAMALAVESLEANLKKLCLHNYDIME

As for `CC(=O)OC[C@H](N)C(=O)O` [OAS], the O-acetylserine sulfhydrylase assay result on CYSL-1 was “exhibited levels of OAS sulfhydrylase activity similar to that of wild-type CYSL-1”.
For the molecule PPSTNPEYYI (peptide, UniProt G5EBV0 714-723, looked up) [EGL-9 C-terminal peptide, last 10 residues], the binding result in the test with recombinant CYSL-1 is reported as “binds”.
Regarding GLPPPPSTNPEYYI (peptide, UniProt G5EBV0 710-723, looked up) [EGL-9 C-terminal peptide, last 14 residues], the binding result in the test with recombinant CYSL-1 is “binds”.
